Test results from publication PMC3989342.

Target: F-actin (endogenous, detected with anti-beta-actin antibodies) (rat (endogenous in hippocampal neurons)) (UniProt P60711)
Test: FRET or BRET; antibody-based acceptor-photobleaching FRET in fixed rat hippocampal neurons, single dendritic spine heads; anti-cofilin AE774 with Alexa 488 secondary (donor), anti-beta-actin AC15 with Alexa 555 secondary (acceptor); F-actin fixed, G-actin mostly extracted; control neurons, 2 min NMDA (nLTD), chronophin (CIN) overexpression

ratio of FRET in the presence versus the absence of nLTD, CIN-expressing neurons: 51%
Substance: cofilin (endogenous cofilin/ADF of rat hippocampal neurons) (from UniProt P45592 1-166) (natural protein)
